Experiments:
[1] = target: T1, β-barrel–assembly machinery (BAM) complex (Escherichia coli, UniProt P0A940); assay: native MS of membrane vesicles, complex-up (HCD) of bound species; type: binding; settings: 100 uM MRL-494, 1 h on ice, native E. coli membrane vesicles; bound to the complex, subunit not resolved
T1 construct: gene bamA; endogenous, untagged heteropentamer BAM-ABCDE, lipidated proteoforms, about 199 kDa, ejected from native E. coli BL21 membrane vesicles; with Outer membrane protein assembly factor BamB; Outer membrane protein assembly factor BamC; Outer membrane protein assembly factor BamD; Outer membrane protein assembly factor BamE

[2] = target: T2, dihydrolipoyl dehydrogenase (DLDH) (Escherichia coli, UniProt P0A9P0); assay: native MS complex-up (HCD), mass shift of ejected monomer; type: binding; settings: endogenous ligand, native E. coli membrane vesicles; ligand identified by added mass and database search
T2 construct: gene lpdA; endogenous, untagged, ejected from native E. coli BL21 membrane vesicles
T2 sequence (P0A9P0 2-474): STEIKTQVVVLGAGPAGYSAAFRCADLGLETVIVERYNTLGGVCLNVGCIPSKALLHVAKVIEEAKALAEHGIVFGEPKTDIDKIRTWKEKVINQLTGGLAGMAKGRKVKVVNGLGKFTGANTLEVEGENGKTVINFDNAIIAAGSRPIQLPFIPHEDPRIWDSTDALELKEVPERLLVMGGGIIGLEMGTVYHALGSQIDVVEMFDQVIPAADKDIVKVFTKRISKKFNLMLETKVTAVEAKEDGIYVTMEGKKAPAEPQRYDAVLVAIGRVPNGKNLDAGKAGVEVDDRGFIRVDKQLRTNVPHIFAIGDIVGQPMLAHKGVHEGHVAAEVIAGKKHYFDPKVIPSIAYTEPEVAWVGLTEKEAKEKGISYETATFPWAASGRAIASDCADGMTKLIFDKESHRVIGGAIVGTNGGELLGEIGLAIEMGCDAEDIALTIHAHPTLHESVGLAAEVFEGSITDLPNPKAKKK

[3] = target: the molecule itself; assay: native MS; endogenous complexes ejected from E. coli BL21 native membrane vesicles (500 mM NH4Ac, 300 ug/ml protein, 5% (v/v) glycerol as supercharger), in-source activation; quadrupole isolation and complex-up analysis by HCD/CID; no detergent
[4] = target: T3, AqpZ, P60844; assay: native MS; purified protein reconstituted into proteoliposomes (E. coli Polar Lipid Extract, 200 mM NH4Ac), 0.1% (v/v) 3-nitrobenzyl alcohol as supercharger, ejected by in-source activation; protein 2 to 10 uM; Q Exactive UHMR; settings: remark: other sources report otherwise
T3 chain: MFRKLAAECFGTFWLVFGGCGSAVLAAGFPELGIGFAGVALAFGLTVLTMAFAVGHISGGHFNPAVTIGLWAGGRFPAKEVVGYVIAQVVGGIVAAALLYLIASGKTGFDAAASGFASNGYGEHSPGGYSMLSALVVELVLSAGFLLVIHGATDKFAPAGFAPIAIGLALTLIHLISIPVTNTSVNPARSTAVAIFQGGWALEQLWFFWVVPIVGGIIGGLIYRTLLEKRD

[5] = target: the molecule itself; assay: as above

NC(N)=NC(=O)CC(Nc1nc(N=C(N)N)nc(NC2CCC(NC(=O)Cn3nnc(-c4ccc(F)cc4)n3)CC2)n1)C1CC1 (centres unmarked) [MRL-494]
native MS of membrane vesicles, complex-up (HCD) of bound species [1]: The results provide direct evidence for MRL-494 BAM complex interaction

Cc1cc2nc3c(=O)[nH]c(=O)nc-3n(C[C@H](O)[C@H](O)[C@H](O)COP(=O)(O)OP(=O)(O)OC[C@H]3O[C@@H](n4cnc5c(N)ncnc54)[C@H](O)[C@@H]3O)c2cc1C [flavin adenine dinucleotide]
native MS complex-up (HCD), mass shift of ejected monomer [2]: identified the ligand as flavin adenine dinucleotide, an endogenous cofactor of DLDH

B1: dihydrolipoyl dehydrogenase (enzyme, UniProt P0A9P0 1-474, looked up)
chain: MSTEIKTQVVVLGAGPAGYSAAFRCADLGLETVIVERYNTLGGVCLNVGCIPSKALLHVAKVIEEAKALAEHGIVFGEPKTDIDKIRTWKEKVINQLTGGLAGMAKGRKVKVVNGLGKFTGANTLEVEGENGKTVINFDNAIIAAGSRPIQLPFIPHEDPRIWDSTDALELKEVPERLLVMGGGIIGLEMGTVYHALGSQIDVVEMFDQVIPAADKDIVKVFTKRISKKFNLMLETKVTAVEAKEDGIYVTMEGKKAPAEPQRYDAVLVAIGRVPNGKNLDAGKAGVEVDDRGFIRVDKQLRTNVPHIFAIGDIVGQPMLAHKGVHEGHVAAEVIAGKKHYFDPKVIPSIAYTEPEVAWVGLTEKEAKEKGISYETATFPWAASGRAIASDCADGMTKLIFDKESHRVIGGAIVGTNGGELLGEIGLAIEMGCDAEDIALTIHAHPTLHESVGLAAEVFEGSITDLPNPKAKKK
notes: dihydrolipoyl dehydrogenase (DLDH, gene lpdA), E. coli BL21, endogenous peripheral membrane protein; also called DLDH; lpdA; source: endogenous, E. coli BL21 membrane vesicles (N2 cavitation)
stoichiometry N [3]: 2

B2: AqpZ, P60844 1-231 (natural protein)
chain: MFRKLAAECFGTFWLVFGGCGSAVLAAGFPELGIGFAGVALAFGLTVLTMAFAVGHISGGHFNPAVTIGLWAGGRFPAKEVVGYVIAQVVGGIVAAALLYLIASGKTGFDAAASGFASNGYGEHSPGGYSMLSALVVELVLSAGFLLVIHGATDKFAPAGFAPIAIGLALTLIHLISIPVTNTSVNPARSTAVAIFQGGWALEQLWFFWVVPIVGGIIGGLIYRTLLEKRD
stoichiometry N [4]: 4

B3: semiSWEET (natural protein)
chain: MALIERIGKALEPLMLVMGLISPLATMPQLYKLYVSHSEHALGLSLTTWLLYSFIALLWTIYGIYHKNPTIWVGNCLGFLMYVAMVVGIIAHTGGTY
stoichiometry N [5]: 2

Reference: paper PMC12305242, “Native Top–Down Analysis of Membrane Protein Complexes Directly From In Vitro and Native Membranes” (Molecular & Cellular Proteomics : MCP, 2025)
